Laboratory results: PMC3796550, “Phosphorylation of FOXP3 by LCK Downregulates MMP9 Expression and Represses Cell Invasion” (PLoS ONE, 2013)
Blank lines part the entries; values can stand above or below the binder they belong to.

Target: T1, His-LCK (human, UniProt P06239 1-509)
T1 construct: Lymphocyte-specific protein tyrosine kinase (LCK), human, full length; Cloned into pET-32a (BamHI/XhoI); also called Recombinant His-tagged LCK
Test: pull-down; MBP fusion proteins bound to amylose resin, His-LCK incubated with 50 μL beads in 20 mM HEPES pH 7.4, 0.5% NP-40, 100 mM NaCl for 2 h at 4 °C; eluted with 10 mM maltose; immunoblot with anti-His-Tag and anti-MBP
Details: both partners purified

T1 sequence (P06239 whole entry): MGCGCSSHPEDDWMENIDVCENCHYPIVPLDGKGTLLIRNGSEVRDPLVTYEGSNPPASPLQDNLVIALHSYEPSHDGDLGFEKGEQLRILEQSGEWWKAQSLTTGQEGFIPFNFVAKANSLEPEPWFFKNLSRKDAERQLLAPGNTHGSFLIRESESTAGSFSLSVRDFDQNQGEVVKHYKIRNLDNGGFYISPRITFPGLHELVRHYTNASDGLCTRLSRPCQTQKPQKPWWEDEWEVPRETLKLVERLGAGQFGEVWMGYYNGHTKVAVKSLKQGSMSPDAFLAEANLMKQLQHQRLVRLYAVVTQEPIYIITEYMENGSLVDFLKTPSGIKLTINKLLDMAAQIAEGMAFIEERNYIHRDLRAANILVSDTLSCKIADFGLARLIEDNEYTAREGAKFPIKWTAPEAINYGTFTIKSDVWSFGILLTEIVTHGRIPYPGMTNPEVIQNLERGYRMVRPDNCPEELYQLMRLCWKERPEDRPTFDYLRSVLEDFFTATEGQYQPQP

- binding result: binds
B1: MBP-FOXP3-Full (natural protein, human, UniProt Q9BZS1 1-431, looked up)
chain: MPNPRPGKPSAPSLALGPSPGASPSWRAAPKASDLLGARGPGGTFQGRDLRGGAHASSSSLNPMPPSQLQLPTLPLVMVAPSGARLGPLPHLQALLQDRPHFMHQLSTVDAHARTPVLQVHPLESPAMISLTPPTTATGVFSLKARPGLPPGINVASLEWVSREPALLCTFPNPSAPRKDSTLSAVPQSSYPLLANGVCKWPGCEKVFEEPEDFLKHCQADHLLDEKGRAQCLLQREMVQSLEQQLVLEKEKLSAMQAHLAGKMALTKASSVASSDKGSCCIVAAGSQGPVVPAWSGPREAPDSLFAVRRHLWGSHGNSTFPEFLHNMDYFKFHNMRPPFTYATLIRWAILEAPEKQRTLNEIYHWFTRMFAFFRNHPATWKNAIRHNLSLHKCFVRVESEKGAVWTVDELEFRKKRSQRPSRCSNPTPGP
notes: Forkhead box P3 (FOXP3), human, full length, amino acids 1-431; Cloned into pMAL-c2 (BamHI/SalI); also called MBP-FOXP3 WT

- binding result: binds
B2: MBP-FOXP3 ΔFKH (domain or fragment, human, UniProt Q9BZS1 1-332, looked up)
chain: MPNPRPGKPSAPSLALGPSPGASPSWRAAPKASDLLGARGPGGTFQGRDLRGGAHASSSSLNPMPPSQLQLPTLPLVMVAPSGARLGPLPHLQALLQDRPHFMHQLSTVDAHARTPVLQVHPLESPAMISLTPPTTATGVFSLKARPGLPPGINVASLEWVSREPALLCTFPNPSAPRKDSTLSAVPQSSYPLLANGVCKWPGCEKVFEEPEDFLKHCQADHLLDEKGRAQCLLQREMVQSLEQQLVLEKEKLSAMQAHLAGKMALTKASSVASSDKGSCCIVAAGSQGPVVPAWSGPREAPDSLFAVRRHLWGSHGNSTFPEFLHNMDYFK
notes: Forkhead box P3 (FOXP3), human, fragment with a truncated forkhead domain, amino acids 1-332; Cloned into pMAL-c2; this vector is known to place MBP at the N-terminus (surmised)
